Columns and labels:
ICAM-R = experiment: Epitope mapping by domain substitution/deletion (summary); assay type: binding, human
Description: Fusion 81 was screened by ELISA on COS cells transiently transfected with either a domain 1 deleted ICAM-R construct [Example 15.C.1] or with an ICAM-2 construct. The transfected cells were paraformaldehyde fixed on 96-well plates, and the remainder of the assay was performed as previously described, except no Tween 20 was used. The wells that were positive for domain 1 deleted ICAM-R but negative for ICAM-2, were tested on Cos cells transiently transfected with domain 1 deleted ICAM-R or domain 3 deleted ICAM-R by ELISA.
For the anti-ICAM-R monoclonal antibody binding assay, COS cells transfected with constructs encoding the ICAM-R chimeric proteins or control constructs were removed from the plates by EDTA treatment and aliquoted at 2.5×10^5 cells per well in a 96-well round bottom plate. Cells were washed 3 times with ice cold washing buffer (PBS containing 1% BSA and 0.05% sodium azide). […] The samples were analyzed on a Becton-Dickinson FACScan instrument. […]
Table 11 below is a summary of certain characteristics of ICAM-R specific monoclonal antibodies of the invention which have been specifically described in the foregoing examples. In Table 11, the abbreviation “NC” stands for “not conclusive” and the abbreviation “ND” stands for “not determined.” The antibodies marked with an asterisk in Table 11 enhanced activation at low concentrations.

Resting PBL = experiment: CD69 and CD25 upregulation after prepulse; assay type: cell-based, human; settings: 24 hours
Description: Resting PBL isolated as described in Section I above were prepulsed on ICR-1.1 or negative control antibodies, washed and incubated on immobilizedanti-CD3 for 24 hours. The cells were then collected, labeled with monoclonal antibodies to the lymphocyte activation antigens CD69, CD25 and CD80 and examined by flow cytometry.

PBL = experiment: Detergent resistance (cytoskeleton association) assay, PBL; assay type: cell-based, human
Description: Experiments were conducted using freshly prepared human PBL or the human T lymphoblastoid cell line CEM-CCRF (ATCC CCL119). Briefly, freshly drawn human blood from healthy volunteer donors was diluted 1:1 with PBS and layered onto Sigma HistoPaque density separation medium. The gradients were centrifuged for 30 minutes at 1500 rpm (600×g) and the mononuclear cell fraction at the interphase was collected and washed three times with PBS. The cell pellet was resuspended in complete RPMI-1640 medium (Gibco, supplemented with L-glutamine, penicillin/streptomycin, sodium pyruvate, 2-mercaptoethanol, and 10% FBS) and plated onto tissue culture-treated petri dishes for adherent cell depletion. Plates were incubated 1-2 hours at 37° C., 5% CO2 after which nonadherent PBL were harvested and washed twice with ice-cold PBS. Conjugation of monoclonal antibodies to fluorescein using fluorescein isothiocyanate (FITC) was performed according to published procedures [see, e.g., Goding, J. Immunol. Meth., 13: 215 (1976)] and, in brief, involves incubation of purified antibody with an excess of FITC (Sigma) in 0.1M bicarbonate buffer pH 8.1 for 90 minutes at 37° C. followed by exhaustive dialysis against PBS to remove unreacted FITC. […]

Jurkat T leukemic cells = experiment: F-actin and G-actin cell content; assay type: cell-based, human
Description: Cellular shape changes (such as cell spreading) as well as T-cell activation are associated with changes in the cytoskeletal actin network manifested by alteration of the ratio of globular actin (G-actin) to filamentous actin (F-actin). To test whether the engagement by ICAM-R antibodies of ICAM-R expressed on Jurkat T leukemic cells would induce changes in cellular actin ratios, studies measuring F-actin and G-actin cell content were carried out by methods known in the art.

B1: ICR-1.1: anti-ICAM-R monoclonal antibody, IgG2a, domain 1, ATCC HB 11053 (antibody, V domains shown)
VH: QVQLQQSGAELAKPGASVKMSCKASGYTFTVYWMHWVKQRPGQGLEWIGYINPNTDYTEYNQRFQDKATLTADKSSSTAYMQLSSLTSEDSAVYYCARWGGNSYGLDYWGQGTSVTVSS
VL: QIVLTQSPALMSASPGEKVTMTCSASSSVSYIYWYQQKPRSSPKPWIYLTSNLASGVPARFSGSGSGASYSLTISIMEAEDAATYYCQQWKSIPLTFGAGTKLELK
Reactive Domain (ICAM-R): 1
upregulation of CD69 and CD25 in response to immobilized anti-CD3 after prepulse (Resting PBL): do not exhibit decreased ability to upregulate the activation antigens CD69 and CD25
greater increase in detergent resistance, crosslinked antibody (PBL): approximately 2 fold
time to peak F-actin content (Jurkat T leukemic cells; OKT3 plus gam, ICR-1.1 without gam): ≤ 60 min
F-actin content (Jurkat T leukemic cells; OKT3 plus goat anti-mouse crosslinker (gam), ICR-1.1 without gam): slight transient increase in F-actin content
cellular G-actin (Jurkat T leukemic cells; with gam crosslinker): gradual decrease in cellular G-actin
rise of F-actin content (Jurkat T leukemic cells; with gam crosslinker, prolonged plateau): 75-100%

Reference: patent publication US20040248211A1, “ICAM-related protein” (priority 1992, published 2004)
